From publication PMC6927325 come the findings set out here.

Assay [1] concerns the target fluorescein-labeled ALK peptide F1577…1587. Description: fluorescence polarisation; fluorescein-labeled peptides and GST-PTBi in solution.
Assay [2] deals with fluorescein-labeled ALK peptide G1473…1483. The assay is described as above.

“GST-fused NUMB PTB domain with the exon 3 insert (11 aa) (domain or fragment)”: the values for the Kd in assay [1] and in assay [2] were 500 nM and 700 nM, respectively.
